Measured values from the MegaScale stability set (Tsuboyama et al. 2023).

B1: HHH_rd2_0155 (parent)
chain: PPDDERKKAEKAARSGNEEKAREILERLGYSEDEARELAKRLR

Variants of: B1
Assay: folding stability dG (cDNA display proteolysis); higher = more stable
Settings: PBS, room temperature

Compared with PPDDERKKAEKAARSGNEEKAREILMRLGYSEDEARELAKRLR [E26M], PPDDERKKAEKAARSGNEEKAREILDRLGYSEDEARELAKRLR [E26D] is lower in “folding stability dG” value: 3.05 kcal/mol for the first, 0.509 kcal/mol for the second.

Going from PPDDERKKAEKAARSGNEEKAREILTRLGYSEDEARELAKRLR [E26T] to PPDDERKKAEKAARSGNEEKAREILHRLGYSEDEARELAKRLR [E26H], the “folding stability dG” value falls from 1.93 kcal/mol to 1.82 kcal/mol.

First: PPDDERKKAEKAARSGNEEKAREILQRLGYSEDEARELAKRLR [E26Q]
Second: PPDDERKKAEKAARSGNEEKAREILGRLGYSEDEARELAKRLR [E26G]
The “folding stability dG” value of the first is higher: 2.39 kcal/mol for the first, 1.5 kcal/mol for the second.

Compared with PPDDERKKAEKAARSGNEEKAREILPRLGYSEDEARELAKRLR [E26P], PPDDERKKAEKAARSGNEEKAREILNRLGYSEDEARELAKRLR [E26N] is higher in “folding stability dG” value: -0.06 kcal/mol for the first, 1.22 kcal/mol for the second.

Compared with PPDDERKKAEKAARSGNEEKGREILERLGYSEDEARELAKRLR [A21G], PPDDERKKAEKAARSGNEEKFREILERLGYSEDEARELAKRLR [A21F] is higher in “folding stability dG” value: 0.961 kcal/mol for the first, 1.63 kcal/mol for the second.

First: PPDDERKKAEKAARSGNEEKVREILERLGYSEDEARELAKRLR [A21V]
Second: PPDDERKKAEKAARSGNEEKQREILERLGYSEDEARELAKRLR [A21Q]
The “folding stability dG” value of the first is higher: 1.27 kcal/mol for the first, 0.924 kcal/mol for the second.

Going from PPDDERKKAEKAARSGNEEKHREILERLGYSEDEARELAKRLR [A21H] to PPDDERKKAEKAARSGNEEKYREILERLGYSEDEARELAKRLR [A21Y], the “folding stability dG” value rises from 0.916 kcal/mol to 1.52 kcal/mol.

Going from PPDDERKKAEKAARSGNEEKTREILERLGYSEDEARELAKRLR [A21T] to PPDDERKKAEKAARSGNEEKIREILERLGYSEDEARELAKRLR [A21I], the “folding stability dG” value rises from 1.08 kcal/mol to 1.68 kcal/mol.

Going from PPDDERKKAEKAARSGNEEKLREILERLGYSEDEARELAKRLR [A21L] to PPDDERKKAEKAARSGNEEKRREILERLGYSEDEARELAKRLR [A21R], the “folding stability dG” value falls from 1.81 kcal/mol to 0.974 kcal/mol.

Going from PPDDERKKAEKAARSGNEEKSREILERLGYSEDEARELAKRLR [A21S] to PPDDERKKAEKAARSGNEEKNREILERLGYSEDEARELAKRLR [A21N], the “folding stability dG” value falls from 1.23 kcal/mol to 0.934 kcal/mol.

Going from PPDDERKKAEKAARSGNEEKKREILERLGYSEDEARELAKRLR [A21K] to PPDDERKKAEKAARSGNEEKPREILERLGYSEDEARELAKRLR [A21P], the “folding stability dG” value falls from 0.641 kcal/mol to 0.632 kcal/mol.

Compared with PPDDERKKAEKAARSGNEEKMREILERLGYSEDEARELAKRLR [A21M], PPDDERKKAEKAARSGNEEKAPEILERLGYSEDEARELAKRLR [R22P] is lower in “folding stability dG” value: 1.46 kcal/mol for the first, 0.374 kcal/mol for the second.

Going from PPDDERKKAEKAARSGNEEKADEILERLGYSEDEARELAKRLR [R22D] to PPDDERKKAEKAARSGNEEKAQEILERLGYSEDEARELAKRLR [R22Q], the “folding stability dG” value rises from 0.179 kcal/mol to 1.41 kcal/mol.

Compared with PPDDERKKAEKAARSGNEEKAWEILERLGYSEDEARELAKRLR [R22W], PPDDERKKAEKAARSGNEEKAKEILERLGYSEDEARELAKRLR [R22K] is higher in “folding stability dG” value: 1.13 kcal/mol for the first, 1.44 kcal/mol for the second.

Going from PPDDERKKAEKAARSGNEEKAFEILERLGYSEDEARELAKRLR [R22F] to PPDDERKKAEKAARSGNEEKAGEILERLGYSEDEARELAKRLR [R22G], the “folding stability dG” value falls from 1.09 kcal/mol to 0.568 kcal/mol.

First: PPDDERKKAEKAARSGNEEKAAEILERLGYSEDEARELAKRLR [R22A]
Second: PPDDERKKAEKAARSGNEEKANEILERLGYSEDEARELAKRLR [R22N]
The “folding stability dG” value of the first is higher: 1.58 kcal/mol for the first, 0.74 kcal/mol for the second.

Compared with PPDDERKKAEKAARSGNEEKALEILERLGYSEDEARELAKRLR [R22L], PPDDERKKAEKAARSGNEEKATEILERLGYSEDEARELAKRLR [R22T] is lower in “folding stability dG” value: 1.4 kcal/mol for the first, 1.27 kcal/mol for the second.

Compared with PPDDERKKAEKAARSGNEEKAMEILERLGYSEDEARELAKRLR [R22M], PPDDERKKAEKAARSGNEEKAHEILERLGYSEDEARELAKRLR [R22H] is lower in “folding stability dG” value: 1.88 kcal/mol for the first, 0.903 kcal/mol for the second.

Compared with PPDDERKKAEKAARSGNEEKASEILERLGYSEDEARELAKRLR [R22S], PPDDERKKAEKAARSGNEEKAEEILERLGYSEDEARELAKRLR [R22E] is lower in “folding stability dG” value: 1 kcal/mol for the first, 0.77 kcal/mol for the second.

Compared with PPDDERKKAEKAARSGNEEKAYEILERLGYSEDEARELAKRLR [R22Y], PPDDERKKAEKAARSGNEEKAIEILERLGYSEDEARELAKRLR [R22I] is higher in “folding stability dG” value: 1.33 kcal/mol for the first, 2.21 kcal/mol for the second.

First: PPDDERKKAEKAARSGNEEKAVEILERLGYSEDEARELAKRLR [R22V]
Second: PPDDERKKAEKAARSGNEEKARERLERLGYSEDEARELAKRLR [I24R]
The “folding stability dG” value of the first is higher: 2.21 kcal/mol for the first, 0.756 kcal/mol for the second.

Going from PPDDERKKAEKAARSGNEEKARENLERLGYSEDEARELAKRLR [I24N] to PPDDERKKAEKAARSGNEEKARETLERLGYSEDEARELAKRLR [I24T], the “folding stability dG” value falls from 0.514 kcal/mol to 0.469 kcal/mol.

Compared with PPDDERKKAEKAARSGNEEKAREQLERLGYSEDEARELAKRLR [I24Q], PPDDERKKAEKAARSGNEEKAREKLERLGYSEDEARELAKRLR [I24K] is lower in “folding stability dG” value: 0.718 kcal/mol for the first, 0.671 kcal/mol for the second.

First: PPDDERKKAEKAARSGNEEKARESLERLGYSEDEARELAKRLR [I24S]
Second: PPDDERKKAEKAARSGNEEKAREELERLGYSEDEARELAKRLR [I24E]
The “folding stability dG” value of the first is lower: 0.659 kcal/mol for the first, 0.689 kcal/mol for the second.

Going from PPDDERKKAEKAARSGNEEKAREMLERLGYSEDEARELAKRLR [I24M] to PPDDERKKAEKAARSGNEEKAREGLERLGYSEDEARELAKRLR [I24G], the “folding stability dG” value falls from 1.43 kcal/mol to 0.167 kcal/mol.

First: PPDDERKKAEKAARSGNEEKAREHLERLGYSEDEARELAKRLR [I24H]
Second: PPDDERKKAEKAARSGNEEKAREPLERLGYSEDEARELAKRLR [I24P]
The “folding stability dG” value of the first is higher: 1.11 kcal/mol for the first, 0.158 kcal/mol for the second.

Compared with PPDDERKKAEKAARSGNEEKAREWLERLGYSEDEARELAKRLR [I24W], PPDDERKKAEKAARSGNEEKAREYLERLGYSEDEARELAKRLR [I24Y] is higher in “folding stability dG” value: 1.38 kcal/mol for the first, 1.44 kcal/mol for the second.

Compared with PPDDERKKAEKAARSGNEEKAREDLERLGYSEDEARELAKRLR [I24D], PPDDERKKAEKAARSGNEEKAREVLERLGYSEDEARELAKRLR [I24V] is higher in “folding stability dG” value: 0.375 kcal/mol for the first, 0.856 kcal/mol for the second.

First: PPDDERKKAEKAARSGNEEKAREFLERLGYSEDEARELAKRLR [I24F]
Second: PPDDERKKAEKAARSGNEEKARELLERLGYSEDEARELAKRLR [I24L]
The “folding stability dG” value of the first is lower: 1.3 kcal/mol for the first, 1.57 kcal/mol for the second.

For PPDDERKKAEKAARSGNEEKAREALERLGYSEDEARELAKRLR [I24A], the “folding stability dG” value was 0.975 kcal/mol.
